Reference: publication PMC6580504, “A novel hydroxycinnamoyl transferase for synthesis of hydroxycinnamoyl spermine conjugates in plants” (BMC Plant Biology, 2019)
Positions count from the first letter of the chain named.

Key:
[1] = molecular target: T1, SmSpmHT (Solanum virginianum, UniProt A0A1I9J7Z8); test: spectrophotometric microplate assay; type: biochemical; conditions: 0.1 M Tris-HCl, 10 mM EDTA, pH 9.0, 30 °C
T1 construct: full-length ORF, 447 residues; N-terminal His-SUMO fusion from pRham N-His SUMO Kan, SUMO tag removed with SUMO Express Protease; bacterial expression
T1 sequence (A0A1I9J7Z8 1-447): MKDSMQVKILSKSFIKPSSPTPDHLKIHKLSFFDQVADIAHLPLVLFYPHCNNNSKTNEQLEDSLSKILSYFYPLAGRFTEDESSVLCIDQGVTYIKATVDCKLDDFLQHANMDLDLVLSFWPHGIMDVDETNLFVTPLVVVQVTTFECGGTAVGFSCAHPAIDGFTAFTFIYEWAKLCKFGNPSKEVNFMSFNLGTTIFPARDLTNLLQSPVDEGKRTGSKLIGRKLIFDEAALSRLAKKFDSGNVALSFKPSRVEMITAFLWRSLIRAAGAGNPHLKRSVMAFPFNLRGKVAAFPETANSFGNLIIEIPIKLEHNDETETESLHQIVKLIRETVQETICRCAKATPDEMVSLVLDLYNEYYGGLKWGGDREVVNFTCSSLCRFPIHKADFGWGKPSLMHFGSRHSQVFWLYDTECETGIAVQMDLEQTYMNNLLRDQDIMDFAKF

[2] = substrate: CC(C)(COP(=O)(O)OP(=O)(O)OC[C@H]1O[C@@H](n2cnc3c(N)ncnc32)[C@H](O)[C@@H]1OP(=O)(O)O)[C@@H](O)C(=O)NCCC(=O)NCCSC(=O)/C=C/c1ccc(O)cc1; test: purified protein; type: biochemical, Solanum richardii; conditions: 2.5 mM spermine, 0.1 M Tris-HCl, 10 mM EDTA, pH 9.0, 30 °C, acyl donor varied 0 to 240 μM
[3] = substrate: COc1cc(/C=C/C(=O)SCCNC(=O)CCNC(=O)[C@H](O)C(C)(C)COP(=O)(O)OP(=O)(O)OC[C@H]2O[C@@H](n3cnc4c(N)ncnc43)[C@H](O)[C@@H]2OP(=O)(O)O)ccc1O; test: purified protein; type: biochemical, Solanum richardii; conditions: 2.5 mM spermine, 0.1 M Tris-HCl, 10 mM EDTA, pH 9.0, 30 °C, acyl donor varied 0 to 240 μM
[4] = substrate: CC(C)(COP(=O)(O)OP(=O)(O)OC[C@H]1O[C@@H](n2cnc3c(N)ncnc32)[C@H](O)[C@@H]1OP(=O)(O)O)[C@@H](O)C(=O)NCCC(=O)NCCSC(=O)/C=C/c1ccc(O)c(O)c1; test: purified protein; type: biochemical, Solanum richardii; conditions: 2.5 mM spermine, 0.1 M Tris-HCl, 10 mM EDTA, pH 9.0, 30 °C, acyl donor varied 0 to 240 μM

## NCCCNCCCCNCCCN [spermine]
[1]; acyl acceptor, 2.5 mM, hydroxycinnamoyl-CoA donor 120 μM
  spectrophotometric microplate assay: The recombinant proteins showed the same substrate specificity, pH preference, and catalytic activity as SrSpmHT

## CC(C)(COP(=O)(O)OP(=O)(O)OC[C@H]1O[C@@H](n2cnc3c(N)ncnc32)[C@H](O)[C@@H]1OP(=O)(O)O)[C@@H](O)C(=O)NCCC(=O)NCCSC(=O)/C=C/c1ccc(O)c(O)c1 [caffeoyl-CoA]
[1]; acyl donor, 120 μM, spermine 2.5 mM
  spectrophotometric microplate assay: The recombinant proteins showed the same substrate specificity, pH preference, and catalytic activity as SrSpmHT

B1: SrSpmHT (Solanum richardii) (protein)
chain: T1 sequence (A0A1I9J7Z8 1-447) with K8N, M442I
notes: full-length ORF, 447 residues; N-terminal His-SUMO fusion from pRham N-His SUMO Kan, SUMO tag removed with SUMO Express Protease
[2]
  Km: 49.0 ± 1.2 µM
  Vmax: 8.15 ± 0.204 µmol/min/mg
  kcat: 8.5 ± 0.21 s⁻¹
  kcat/Km: 173000 ± 1000 M⁻¹ s⁻¹
[3]
  Km: 106.1 ± 9.0 µM
  Vmax: 13.4 ± 0.48 µmol/min/mg
  kcat: 13.9 ± 0.5 s⁻¹
  kcat/Km: 132000 ± 6000 M⁻¹ s⁻¹
[4]
  Km: 478.4 ± 46.5 µM
  Vmax: 68.8 ± 6.08 µmol/min/mg
  kcat: 71.5 ± 6.3 s⁻¹
  kcat/Km: 150000 ± 1000 M⁻¹ s⁻¹
